Assay results as given in PMC3464278, “Structural Characterization of the Complex of SecB and Metallothionein-Labeled proOmpA by Cryo-Electron Microscopy” (PLoS ONE, 2012).

Molecular target: the molecule itself
Experiment: cryo-EM structure; SecB/pOA1MTAu complex from gel filtration, vitrified on holey carbon grids, FEI Tecnai F20 at 200 kV; single particle analysis (EMAN), 19562 particles; about 20 Å; SecB crystal structure docked manually

B1: SecB (natural protein, E. coli)
chain: MSEQNNTEMTFQIQRIYTKDISFEAPNAPHVFQKDWQPEVKLDLDTASSQLADDVYEVVLRVTVTASLGEETAFLCEVQQGGIFSIAGIEGTQMAHCLGAYCPNILFPYARECITSMVSRGTFPQLNLAPVNFDALFMNYLQQQAGEGTEEHQ
notes: SecB, molecular chaperone of the Sec pathway, E. coli; also called molecular chaperon SecB; E. coli SecB; source: prepared as described previously [26]
- binding result: binds
